What was measured:
[1] = target: T1, His-rFbg (recombinant fibrinogen, gamma-chain K88H, K111H, K382H, K399H)
T1 chain 1: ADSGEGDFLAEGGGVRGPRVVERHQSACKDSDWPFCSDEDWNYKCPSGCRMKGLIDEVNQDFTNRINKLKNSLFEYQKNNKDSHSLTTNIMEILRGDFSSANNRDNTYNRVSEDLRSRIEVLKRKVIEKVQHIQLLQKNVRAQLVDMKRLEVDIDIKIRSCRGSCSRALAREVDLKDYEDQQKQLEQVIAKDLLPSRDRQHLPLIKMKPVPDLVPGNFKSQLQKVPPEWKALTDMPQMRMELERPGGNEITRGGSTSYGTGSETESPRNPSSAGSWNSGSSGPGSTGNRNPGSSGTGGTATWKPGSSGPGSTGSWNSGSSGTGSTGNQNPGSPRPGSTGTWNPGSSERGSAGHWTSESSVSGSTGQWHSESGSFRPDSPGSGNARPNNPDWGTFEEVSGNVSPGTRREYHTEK
T1 chain 2: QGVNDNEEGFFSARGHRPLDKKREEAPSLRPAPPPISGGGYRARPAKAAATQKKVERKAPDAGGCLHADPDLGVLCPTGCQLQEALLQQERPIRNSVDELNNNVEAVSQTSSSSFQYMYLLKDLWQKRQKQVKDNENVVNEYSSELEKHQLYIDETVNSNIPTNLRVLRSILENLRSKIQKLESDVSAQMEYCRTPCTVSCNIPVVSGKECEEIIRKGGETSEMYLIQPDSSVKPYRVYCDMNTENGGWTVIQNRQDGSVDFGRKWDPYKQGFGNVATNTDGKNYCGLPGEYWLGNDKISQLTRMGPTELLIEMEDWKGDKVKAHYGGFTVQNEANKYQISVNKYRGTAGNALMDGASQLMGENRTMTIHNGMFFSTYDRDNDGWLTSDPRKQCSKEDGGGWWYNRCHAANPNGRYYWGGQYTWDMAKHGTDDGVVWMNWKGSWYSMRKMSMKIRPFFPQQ
T1 chain 3: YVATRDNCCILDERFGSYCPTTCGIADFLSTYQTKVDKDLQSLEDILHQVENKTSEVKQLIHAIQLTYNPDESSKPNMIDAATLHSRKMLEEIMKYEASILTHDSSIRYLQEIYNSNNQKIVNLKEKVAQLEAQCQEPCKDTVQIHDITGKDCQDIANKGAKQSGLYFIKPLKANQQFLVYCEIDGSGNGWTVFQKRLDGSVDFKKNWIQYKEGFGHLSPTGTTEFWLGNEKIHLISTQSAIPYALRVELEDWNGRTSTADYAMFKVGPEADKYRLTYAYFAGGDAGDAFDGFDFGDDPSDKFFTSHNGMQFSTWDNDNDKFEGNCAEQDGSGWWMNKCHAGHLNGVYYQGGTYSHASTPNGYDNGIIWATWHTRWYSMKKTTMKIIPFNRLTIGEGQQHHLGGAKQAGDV

[2] = target: T2, WT-Fbg (human fibrinogen, SigmaAldrich), P02671
T2 chain 1: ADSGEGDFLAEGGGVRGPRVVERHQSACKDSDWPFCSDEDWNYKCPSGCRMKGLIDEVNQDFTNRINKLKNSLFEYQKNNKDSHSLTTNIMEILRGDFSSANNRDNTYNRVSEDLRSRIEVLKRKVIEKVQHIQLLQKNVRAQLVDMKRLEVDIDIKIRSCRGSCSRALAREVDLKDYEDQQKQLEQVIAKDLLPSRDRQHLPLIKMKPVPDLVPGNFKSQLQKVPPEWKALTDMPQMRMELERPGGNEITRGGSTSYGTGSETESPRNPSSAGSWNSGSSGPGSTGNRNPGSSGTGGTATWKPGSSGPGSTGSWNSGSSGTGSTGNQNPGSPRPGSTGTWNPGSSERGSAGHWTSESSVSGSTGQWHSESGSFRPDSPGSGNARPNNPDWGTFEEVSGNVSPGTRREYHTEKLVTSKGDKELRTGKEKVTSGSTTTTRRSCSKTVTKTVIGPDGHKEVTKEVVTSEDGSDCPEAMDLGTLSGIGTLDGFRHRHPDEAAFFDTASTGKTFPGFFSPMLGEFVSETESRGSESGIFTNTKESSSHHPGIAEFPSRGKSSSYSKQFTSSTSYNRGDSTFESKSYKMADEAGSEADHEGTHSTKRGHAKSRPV
T2 chain 2: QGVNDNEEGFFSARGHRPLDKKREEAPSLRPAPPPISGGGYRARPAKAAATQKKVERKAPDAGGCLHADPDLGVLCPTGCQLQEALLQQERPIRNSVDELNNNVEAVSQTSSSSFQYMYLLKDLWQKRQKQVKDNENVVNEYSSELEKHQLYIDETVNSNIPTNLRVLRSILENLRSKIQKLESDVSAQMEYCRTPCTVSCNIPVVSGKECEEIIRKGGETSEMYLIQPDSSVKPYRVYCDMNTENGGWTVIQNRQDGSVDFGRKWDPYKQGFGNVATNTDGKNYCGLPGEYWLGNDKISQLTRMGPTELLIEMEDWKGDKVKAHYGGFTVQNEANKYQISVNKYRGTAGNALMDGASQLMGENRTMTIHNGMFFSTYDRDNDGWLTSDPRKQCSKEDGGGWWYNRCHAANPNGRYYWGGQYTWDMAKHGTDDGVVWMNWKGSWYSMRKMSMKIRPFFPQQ
T2 chain 3: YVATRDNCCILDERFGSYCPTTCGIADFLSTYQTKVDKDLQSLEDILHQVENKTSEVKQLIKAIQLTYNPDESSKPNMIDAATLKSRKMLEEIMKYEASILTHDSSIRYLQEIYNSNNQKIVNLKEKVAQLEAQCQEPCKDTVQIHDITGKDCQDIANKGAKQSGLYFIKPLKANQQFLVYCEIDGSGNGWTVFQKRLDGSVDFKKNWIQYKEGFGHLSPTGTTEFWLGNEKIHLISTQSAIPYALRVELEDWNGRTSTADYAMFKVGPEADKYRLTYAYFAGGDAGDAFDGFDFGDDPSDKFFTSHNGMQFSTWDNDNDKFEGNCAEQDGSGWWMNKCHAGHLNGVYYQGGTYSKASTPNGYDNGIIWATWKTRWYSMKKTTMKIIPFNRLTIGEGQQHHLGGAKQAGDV

[3] = target: T3, synthetic gamma-chain peptide ATL(K)SRM with K changed to serine
T3 chain: ATLSSRM

[4] = target: T4, synthetic gamma-chain peptide QLI(K)AIQ with K changed to serine
T4 chain: QLISAIQ

[5] = target: T5, synthetic gamma-chain peptide TYS(K)AST with K changed to serine
T5 chain: TYSSAST

B1: human plasmin (Merck) (protein)
chain: KVYLSECKTGNGKNYRGTMSKTKNGITCQKWSSTSPHRPRFSPATHPSEGLEENYCRNPDNDPQGPWCYTTDPEKRYDYCDILECEEECMHCSGENYDGKISKTMSGLECQAWDSQSPHAHGYIPSKFPNKNLKKNYCRNPDRELRPWCFTTDPNKRWELCDIPRCTTPPPSSGPTYQCLKGTGENYRGNVAVTVSGHTCQHWSAQTPHTHNRTPENFPCKNLDENYCRNPDGKRAPWCHTTNSQVRWEYCKIPSCDSSPVSTEQLAPTAPPELTPVVQDCYHGDGQSYRGTSSTTTTGKKCQSWSSMTPHRHQKTPENYPNAGLTMNYCRNPDADKGPWCFTTDPSVRWEYCNLKKCSGTEASVVAPPPVVLLPDVETPSEEDCMFGNGKGYRGKRATTVTGTPCQDWAAQEPHRHSIFTPETNPRAGLEKNYCRNPDGDVGGPWCYTTNPRKLYDYCDVPQCAAPSFDCGKPQVEPKKCPGRVVGGCVAHPHSWPWQVSLRTRFGMHFCGGTLISPEWVLTAAHCLEKSPRPSSYKVILGAHQEVNLEPHVQEIEVSRLFLEPTRKDIALLKLSSPAVITDKVIPACLPSPNYVVADRTECFITGWGETQGTFGAGLLKEAQLPVIENKVCNRYEFLNGRVQSTELCAGHLAGGTDSCQGDSGGPLVCFEKDKYILQGVTSWGLGCARPNKPGVYVRVSRFVTWIEGVMRNN
- plasmin cleavage analysis of target sites (peptide fragments detected by MS) [1]: Position 382 shows a partial cleavage for the mutants (both cleaved and non-cleaved peptides detected)
- plasmin cleavage at the mutated gamma-chain sites 88, 111, 382, 399, high-resolution ESI-MS after 24 h digest in solution [1]: no cleavage was detected in either of the two mutants for all 4 mutations
- plasmin cleavage sites in the gamma-chain, high-resolution ESI-MS after 24 h digest in solution (0.5 U/mL plasmin) [2]: the 4 different cleavage sites K88, K111, K382, K399 in the WT could be detected
- plasmin cleavage efficiency of synthetic peptide, HPLC [3]: Peptide sequences including S instead of K showed a significant reduction in cleavage efficiency compared to the original sequences
- plasmin cleavage efficiency of synthetic peptide, HPLC [4]: Peptide sequences including S instead of K showed a significant reduction in cleavage efficiency compared to the original sequences
- plasmin cleavage efficiency of synthetic peptide, HPLC [5]: Peptide sequences including S instead of K showed a significant reduction in cleavage efficiency compared to the original sequences

Source: patent publication US20260001937A1, “NOVEL RECOMBINANT FIBRINOGEN VARIANTS FOR FIBRIN SEALANTS FOR SURGICAL WOUND CARE” (Julius-Maximilians-Universität Würzburg, priority 2022, published 2026)
